We go through one molecule from patent publication US20210355207A1 (ACADEMIA SINICA, published 2021).

For assay [1], the target named is T1, synthetic peptide LKNQNQELPEDVNPAKKENYLSEQD (SEQ ID NO: 2).
T1 construct: Used to screen the hybridoma clones by ELISA; also called another synthetic peptide
T1 peptide: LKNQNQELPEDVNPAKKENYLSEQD
Nature of the assay: ELISA screen of hybridoma clones on peptide. (In general: ELISA stands for enzyme-linked immunosorbent assay.)

Assay [2] has as its target T2, human advillin-flag (hAvil-flag), exogenously expressed in 293 cells (human, UniProt O75366 1-819).
T2 construct: also called exogenous expression of human advillin clone; expression plasmid of human advillin; not shown: flag tag from the p3xFLAG-CMV14 vector
T2 sequence (looked up): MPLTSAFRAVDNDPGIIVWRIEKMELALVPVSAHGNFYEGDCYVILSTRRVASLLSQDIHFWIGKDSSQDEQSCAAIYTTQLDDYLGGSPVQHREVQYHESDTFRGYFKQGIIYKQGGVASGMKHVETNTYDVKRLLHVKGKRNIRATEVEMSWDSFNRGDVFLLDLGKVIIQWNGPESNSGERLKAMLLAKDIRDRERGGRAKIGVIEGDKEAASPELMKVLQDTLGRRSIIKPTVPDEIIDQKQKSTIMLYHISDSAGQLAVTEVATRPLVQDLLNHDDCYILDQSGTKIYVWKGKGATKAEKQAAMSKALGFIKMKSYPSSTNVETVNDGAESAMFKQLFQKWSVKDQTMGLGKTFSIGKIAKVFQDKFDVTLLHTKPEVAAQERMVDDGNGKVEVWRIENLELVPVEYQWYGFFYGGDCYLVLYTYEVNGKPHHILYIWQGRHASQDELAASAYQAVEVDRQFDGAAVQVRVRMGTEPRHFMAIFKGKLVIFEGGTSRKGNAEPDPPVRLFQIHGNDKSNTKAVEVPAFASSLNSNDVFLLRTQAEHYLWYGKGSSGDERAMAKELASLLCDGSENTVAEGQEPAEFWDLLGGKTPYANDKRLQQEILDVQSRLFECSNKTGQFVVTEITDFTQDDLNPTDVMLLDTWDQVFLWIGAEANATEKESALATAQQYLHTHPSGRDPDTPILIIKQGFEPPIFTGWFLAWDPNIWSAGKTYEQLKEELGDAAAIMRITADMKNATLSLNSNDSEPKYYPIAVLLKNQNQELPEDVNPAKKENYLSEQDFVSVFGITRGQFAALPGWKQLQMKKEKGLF
Description: western blot of lysates of 293 cells transfected with hAvil-flag or vector control. An excerpt: FIG. 6 The monoclonal antibody of human advillin specifically recognized exogenous expression of human advillin in 293 cells. Human advillin clone was tagged with flag, and the construct of human advillin-flag (hAvil-flag) or vector control (flag) were transfected into 293 cells. The lysates were detected with the monoclonal antibody of human advillin and flag antibody respectively. The molecular weight of human advillin is predicted as 92 KDa and the detected signals were corresponded to predicted size of hAvil-flag around 100 KDa. The top signal is supposed as aggregated forms as detected in the flag-antibody recognized signal.
Primary antibodies used in western blot were rabbit polyclonal anti-mouse advillin (1 μg/ml), mouse monoclonal anti-human advillin, and rabbit anti-albumin (1:1000, both GeneTex, San Antonio, Tex., USA). […] Cerebrospinal fluid (CSF) samples or protein from cell lysates separated by SDS-PAGE were transferred onto PVDF membranes by using a Mini Trans-Blot Electrophoretic Transfer Cell (Bio-rad, CA, USA). […] Enhanced chemiluminescence (ECL) involved the Immobilon ECL Kit (Millipore, MA, USA) and signals were detected by using the BioSpectrum Auto Imaging System (UVP, CA, USA). […]

B1: monoclonal antibody of human advillin hAvil, produced by the hybridoma YCC-S1 (antibody, V domains shown)
VH: EVKLEESGGGLVQPGGSLKLSCVASGFAFSNSWMSWVRQSPEKGLEWVAEIRLKSDNYASHYAESVKGRFTISRDDSKSRLYLQMNALRAEDTGIYYCSDGTWFTYWGQGTLVTVST
VL: DIVMSQSPSSLAVSVGEKVTMNCKSSQSLLYRANQKNYLAWYQQKPGQSPKLLIYWASTRESGVPDRFTGSGSGTDFTLTISSVKAEDLAVYYCQQYYSHPFTFGSGTKLKIK
notes: also called mouse monoclonal anti-human advillin; anti-advillin antibody
On to B1, for which the binding result in assay [1] and in assay [2] was “binds” in each case.
